Patent publication US11466286B2, “Methods and compositions for conferring and/or enhancing herbicide tolerance using protoporphyrinogen oxidase or variant thereof” (FarmHannong Co., Ltd., priority 2016, dated 2022)
Where a chain is given by its changes, count along the chain named. Numbers in names are those of the source.

B1: CyPPO10 S60T + V165S + F360I: CyPPO10 (SEQ ID NO: 2) PPO variant (protein)
chain: MIEVDVAIVGGGLSGLSVAWRLQRSAPHYSGVLLEASDRLGGNITTQAAEGFVWELGPNTFAPTPALLQLIAEVGLHSELIRGDRHLPRYIYWRGELYPLEPTRPLALATSNLLSPWGKVRAALGALGFVPPYLGSGDESVDSFFRRHLGQEVAERLVAPFVSGSYAGDPQQLSAAAAFRRIAQLEKLGGSLIAGALRLRRQQPPQPKPPAQVQMRPGELGSFREGLAALPRAIAQQLKAPLHLQTPVEAITPEPKGGYLLRSGEQTWHARSVVLATPAYQTAELVAPFQPAIARALATIPYPTVACVVLAYPAGLGRSVRPGFGVLVPRGQGIRTLGTIWSSCLFPQRTPAGWQVFTSIIGGATDPDLASLREEAIVEQVQQDLTRLLDLPAAKARLLGMKVWRRAIPQYIVGYPQQWQQVTHALTQTPGLFLCSNYAEGVALGDRVEHGNRTAAAVAAYLAGGQS
modifications: Synthetic CyPPO10
B2: CyPPO10 V165C + A167L + F360M: CyPPO10 (SEQ ID NO: 2) PPO variant (protein)
chain: B1 chain with T60S, S165C, A167L, I360M
modifications: Synthetic CyPPO10
B3: CyPPO10 Q184G: CyPPO10 (SEQ ID NO: 2) PPO variant (protein)
chain: B1 chain with T60S, S165V, Q184G, I360F
modifications: Synthetic CyPPO10
B4: CyPPO10 V165C + A167C + F360M: CyPPO10 (SEQ ID NO: 2) PPO variant (protein)
chain: B1 chain with T60S, S165C, A167C, I360M
modifications: Synthetic CyPPO10
B5: CyPPO10 F161A: CyPPO10 (SEQ ID NO: 2) PPO variant (protein)
chain: B1 chain with T60S, F161A, S165V, I360F
modifications: Synthetic CyPPO10
B6: CyPPO10 L327T: CyPPO10 (SEQ ID NO: 2) PPO variant (protein)
chain: B1 chain with T60S, S165V, L327T, I360F
modifications: Synthetic CyPPO10
B7: CyPPO10 R89A + A167L + F360M: CyPPO10 (SEQ ID NO: 2) PPO variant (protein)
chain: B1 chain with T60S, R89A, S165V, A167L, I360M
modifications: Synthetic CyPPO10
B8: CyPPO10 S60T + I340T + F360I: CyPPO10 (SEQ ID NO: 2) PPO variant (protein)
chain: B1 chain with S165V, I340T
modifications: Synthetic CyPPO10
B9: CyPPO10 V305L + F360M: CyPPO10 (SEQ ID NO: 2) PPO variant (protein)
chain: B1 chain with T60S, S165V, V305L, I360M
modifications: Synthetic CyPPO10
B10: CyPPO10 A167I + F360M: CyPPO10 (SEQ ID NO: 2) PPO variant (protein)
chain: B1 chain with T60S, S165V, A167I, I360M
modifications: Synthetic CyPPO10
B11: CyPPO10 R89V + F360I: CyPPO10 (SEQ ID NO: 2) PPO variant (protein)
chain: B1 chain with T60S, R89V, S165V
modifications: Synthetic CyPPO10
B12: CyPPO10 R89A: CyPPO10 (SEQ ID NO: 2) PPO variant (protein)
chain: B1 chain with T60S, R89A, S165V, I360F
modifications: Synthetic CyPPO10
B13: CyPPO10 V165C + A167I + F360M: CyPPO10 (SEQ ID NO: 2) PPO variant (protein)
chain: B1 chain with T60S, S165C, A167I, I360M
modifications: Synthetic CyPPO10
B14: CyPPO10 F360T: CyPPO10 (SEQ ID NO: 2) PPO variant (protein)
chain: B1 chain with T60S, S165V, I360T
modifications: Synthetic CyPPO10
B15: CyPPO10 V165C + F360M: CyPPO10 (SEQ ID NO: 2) PPO variant (protein)
chain: B1 chain with T60S, S165C, I360M
modifications: Synthetic CyPPO10
B16: CyPPO10 I408W + F360M: CyPPO10 (SEQ ID NO: 2) PPO variant (protein)
chain: B1 chain with T60S, S165V, I360M, I408W
modifications: Synthetic CyPPO10
B17: CyPPO10 I340T: CyPPO10 (SEQ ID NO: 2) PPO variant (protein)
chain: B1 chain with T60S, S165V, I340T, I360F
modifications: Synthetic CyPPO10
B18: CyPPO10 F324V: CyPPO10 (SEQ ID NO: 2) PPO variant (protein)
chain: B1 chain with T60S, S165V, F324V, I360F
modifications: Synthetic CyPPO10
B19: CyPPO10 R89L + F360I: CyPPO10 (SEQ ID NO: 2) PPO variant (protein)
chain: B1 chain with T60S, R89L, S165V
modifications: Synthetic CyPPO10
B20: CyPPO10 V165C: CyPPO10 (SEQ ID NO: 2) PPO variant (protein)
chain: B1 chain with T60S, S165C, I360F
modifications: Synthetic CyPPO10
B21: CyPPO10 I408R + F360M: CyPPO10 (SEQ ID NO: 2) PPO variant (protein)
chain: B1 chain with T60S, S165V, I360M, I408R
modifications: Synthetic CyPPO10
B22: CyPPO10 A167L: CyPPO10 (SEQ ID NO: 2) PPO variant (protein)
chain: B1 chain with T60S, S165V, A167L, I360F
modifications: Synthetic CyPPO10

System: CyPPO10
Assay: PPO enzyme activity and IC50 by herbicides, CyPPO10 wild type and variants (MBP-PPO fusion)
Assay type: biochemical, Thermosynechococcus elongatus BP-1
Settings: PPO enzyme activity of CyPPO10 protein, wild type = 100
Experimental: The enzyme activities of PPO protein and PPO protein variants were examined, and inhibition assay by PPO-inhibiting herbicides was conducted. It was confirmed that the PPO protein has low water-solubility, but in case of being expressed as a fusion protein with MBP (maltose binding protein) (MBP-PPO), the PPO protein is able to be stably expressed as water-soluble form. Therefore, the wild type and variant proteins which were expressed in the form of fusion protein with MBP were used in the present test (refer to FIG. 4).
In order to express wild type genes and mutant genes of CyPPO10 and CyPPO13 (refer to Example 1 and Example 4), those genes were introduced to pMAL-c2X vector (refer to FIG. 5) respectively, and then cloned to BL21 (DE3) E. coli (CodonPlus).
The enzyme activity of the purified wild type protein and variant proteins of CyPPO10 and CyPPO13 was measured by the following process.
At first, a substrate of PPO protein, Protoporphyrinogen IX was synthesized. This process was performed in the space where nitrogen gas is streamed. 6 mg of protoporphyrin IX was dissolved in 20% (v/v) EtOH 20 ml, and stirred under dark condition for 30 minutes. The obtained protoporphyrinogen IX solution was put into a 15 ml screw tube in an amount of 800 and flushed with nitrogen gas for 5 minutes. To this, 1 g of sodium amalgam was added and vigorous shaking was performed for 2 minutes. The lid was open to exhaust hydrogen gas in the tube. Thereafter, the lid was closed and incubated for 3 minutes. The […] was filtered using syringe and cellulose membrane filter. To 600 μl of the obtained […], 2M MOPS [3-(N-morpholino)propanesulfonic acid] was added in an amount of approximately 300 thereby adjusting pH to 8.0. To determine the enzyme activity of PPO protein, a reaction mixture was prepared with the following composition (based on 10 ml): 50 mM Tris-Cl (pH 8.0); 50 mM NaCl; 0.04% (v/v) Tween 20; 40 mM glucose (0.072 g); 5 units glucose oxidase (16.6 mg); and 10 units catalase (1 μl).
Two hundred microliters (200 μl) of reaction mixture containing a purified PPO protein were placed in 96 well plates, and preincubated for 30 min at room temperature to reduce the oxygen concentration by the reaction of glucose oxidase-catalase. The mineral oil was layered and then the reaction was initiated by adding the substrate, […], to a final concentration of 50 μM. The reaction proceeded at room temperature for 30 min and the fluorescence of protoporphyrin IX was measured using Microplate reader (Sense, Hidex) (excitation: 405 nm; emission: 633 nm). To calculate the PPO enzyme activity, protoporphyrinogen IX solution was kept open in the air to oxidize the solution (overnight). To this, 2.7N HCl was added, and the absorbance at 408 nm was measured. A standard curve was generated using standard protoporphyrin IX, and the PPO activity was measured by calibration of protoporphyrin IX using the standard curve of protoporphyrin IX.
The final concentration of each herbicide was as follows: […]

Molecule	Activity (%)
B1	12%
B2	83%
B3	97%
B4	91%
B5	92%
B6	84%
B7	7%
B8	5%
B9	82%
B10	85%
B11	57%
B12	83%
B13	75%
B14	85%
B15	93%
B16	5%
B17	19%
B18	59%
B19	51%
B20	99%
B21	5%
B22	95%
